# T1: 3xFLAG-MITF (UniProt Q08874 1-526)
# T1 sequence (looked up): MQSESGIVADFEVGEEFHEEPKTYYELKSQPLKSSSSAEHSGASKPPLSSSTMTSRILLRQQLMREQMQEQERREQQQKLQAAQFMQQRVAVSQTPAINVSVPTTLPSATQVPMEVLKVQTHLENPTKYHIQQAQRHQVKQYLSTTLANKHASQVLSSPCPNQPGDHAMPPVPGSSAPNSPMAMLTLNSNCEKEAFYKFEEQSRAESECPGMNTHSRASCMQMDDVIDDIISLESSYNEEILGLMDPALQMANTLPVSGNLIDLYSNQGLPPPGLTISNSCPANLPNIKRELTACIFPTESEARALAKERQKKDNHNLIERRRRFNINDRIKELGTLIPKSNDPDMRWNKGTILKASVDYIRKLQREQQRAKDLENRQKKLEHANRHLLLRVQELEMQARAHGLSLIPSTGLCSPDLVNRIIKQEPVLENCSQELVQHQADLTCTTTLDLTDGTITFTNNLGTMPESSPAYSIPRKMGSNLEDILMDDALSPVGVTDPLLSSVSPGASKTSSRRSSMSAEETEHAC
# B1: 3xFLAG-PAX6 (natural protein)
# chain: not shown
# Target: T1, 3xFLAG-MITF
# Assay: cell-based or functional assay
binder,measurement,value
B1,"luciferase reporter under the hTyr promoter in HeLa cells, fold change with MITF + PAX6 (MITF alone 12.6 fold)",71.3 fold change
same,"luciferase reporter under the mTyrp1 promoter in HeLa cells, fold change with MITF + PAX6 (MITF alone 5.6 fold; PAX6 alone no activation)",51.9 fold change
same,"luciferase reporter with four consecutive M-box elements in HeLa cells, fold activity with PAX6 and MITF together (MITF alone 6.6 fold; PAX6 alone none)",11.9 fold

# — article PMC4038462, “PAX6 Regulates Melanogenesis in the Retinal Pigmented Epithelium through Feed-Forward Regulatory Interactions with MITF” (PLoS Genetics, 2014)
